Results: publication doi:10.1101/2021.02.05.428650 (bioRxiv, 2021)
Where “and” joins values, the source holds several entries; their conditions need not be identical. Identical values can stand only once.

Target: the molecule itself
Experiment: SDS-PAGE and Western blot after detergent removal

**Q.** With MIELSLIDFYLCFLAFLLFLVLIMLIIFWFSLELQDHNETCHA (natural protein) [ORF7b from SARS-CoV-2] as the protein, how does the “stoichiometry N” value read?
**A.** ≤ 10 and 5
